B1: rhZP3: recombinant human zona pellucida protein 3 made by human ovarian cell line PA-1, correctly glycosylated (protein, listed as Homo sapiens)
chain: MELSYRLFICLLLWGSTELCYPQPLWLLQGGASHPETSVQPVLVECQEATLMVMVSKDLFGTGKLIRAADLTLGPEACEPLVSMDTEDVVRFEVGLHECGNSMQVTDDALVYSTFLLHDPRPVGNLSIVRTNRAEIPIECRYPRQGNVSSQAILPTWLPFRTTVFSEEKLTFSLRLMEENWNAEKRSPTFHLGDAAHLQAEIHTGSHVPLRLFVDHCVATPTPDQNASPYHTIVDFHGCLVDGLTDASSAFKVPRPGPDTLQFTVDVFHFANDSRNMIYITCHLKVTLAEQDPDELNKACSFSKPSNSWFPVEGPADICQCCNKGDCGTPSHSRRQPHVMSQWSRSASRNRRHVTEEADVTVGPLIFLDRRGDHEVEQWALPSDTSVVLLGVGLAVVVSLTLTAVILVLTRRCRTASHPVSASE
modifications: recombinant, glycosylated, made in PA-1 cells
notes: recombinant human zona pellucida protein 3 made by human ovarian cell line PA-1, correctly glycosylated

How the values were obtained:
sperm [1] = test: Weighted acrosome scoring of fluorescence-stained sperm morphology types; assay type: cell-based, human; settings: for % of Type I (intact acrosome): column drawing 1; for % of Type II (damaged acrosome): column drawing 2; for % of Type III (equatorial segment): column drawing 3; for % of Type IV (no fluorescence in head): column drawing 4
Text: A representative example of this method is as follows. […] (See Arts et al, 1994 for further details useful for this example).
In a second step, each type is given a score. In this example, Type I has fluorescence in the acrosomal region, indicating intact acrosome; Type II has fluorescence in a clearly damaged acrosome; Type III has fluorescence in the equatorial segment; and Type IV has no detectable fluorescence in the head. Each type, in the representative example is given a score as follow. Type I has 0 points, Type II has 1 point, Type III has 1.5 points and Type IV has 2 points. Of course different numbers of types may be scored and different weighting systems may be used, depending on knowledge of the system used and the conditions and reagents used for scoring each type. In this example, the sperm are examined under a fluorescence microscope and the percentage of each category is recorded. To determine the total AR score, the percentage of each category type is multiplied by the appropriate point and added together as shown in the equation below and in […]

sperm [2] = test: Percentage of acrosome-reacted sperm as determined by FITC-PSA; assay type: cell-based, human; settings: NT 30 ng/ml, calcium ionophore 5 μM, rhZP3 30 ng/ml, solubilized zona 0.5 ZP/μl, Mean (±SEM); for % Acrosome reacted-sperm: n = 29 ejaculates
Text: The acrosome reaction was studied in response to purified rhZP3, natural solubilized human ZP and the calcium ionophore.

[3] = system: sperm-zona pellucida binding; test: Hemizona assay, inhibition of sperm-zona pellucida binding; assay type: cell-based, human
Text: Isolation and purification procedures A wide variety of isolation and purification procedures for ZP3, ZP2, ZP1 as whole proteins, glycosylated fragments, complexes, conjugates and as fusion proteins may be used in embodiments of the invention. […] Furthermore, data were obtained that establish the ability of rhZP3 to induce the sperm acrosomal reaction. […] Each of the techniques most preferably uses a human glycosylated ZP3 and/or ZP2 and/or ZP1.
This procedure was used to evaluate recombinant human ZP3 as described above.
The hemizona assay is employed as a parallel assay to evaluate the binding ability of GFP-rhZP3 coated agarose beads. An aliquot of semen is processed as described above. Both sperm and artificial zona are processed as described above. For each hemizona pair, the HZI was calculated as follows: (number of test sperm bound to the hemizona/number of fertile sperm bound to hemizona)×100. […]
A hemizona assay is to be carried out as a parallel assay to evaluate the binding ability of GFP-rhZP3 coated agarose beads. […] After capacitation, sperm sample are ready for use in a HZA. […] The number of sperm tightly bound to the outer surface are counted. For each hemizona pair, the HZI is calculated as follows: (number of test sperm bound to the hemizona/number of fertile sperm bound to hemizona)×100 (Burkman, et al.,1988). […]

human sperm [4] = test: Acrosome reaction by rhZP3 after sperm capacitation time course; assay type: cell-based; settings: 30 ng/mL, 4 hours capacitation
Protocol: The time course study of sperm capacitation in combination with rhZP3 was evaluated. After different periods of capacitation, sperm were treated with rhZP3 (30 ng/ml) for thirty minutes to trigger the acrosome reaction. […] In many embodiments with rhZP3 an approximate 4 hour capacitation time is preferred because at this time frame the sperm are 99% alive as compared to 86%, 82% and 66% of live sperm for 8, 12 and 24 hours of capacitation time respectively. Experiments were performed after 4 hours of capacitation. The ratio of acrosome-reacted spermatozoa increased by 1.5 fold, after incubation with 30 ng/mL rhZP3, as compared to controlled conditions. This increased activity is much stronger than the increased activity produced after incubation with rhZP3 made by CHO cells. The CHO cell product induced a similar percentage of acrosome reaction in human sperm following 24-hour sperm capacitation at a dose of 15–20 ng/μl (van Duin et al, 1994).

human sperm [5] = settings: 30 ng/mL; cited from earlier work
[6] = system: sperm-zona pellucida binding; settings: hemizona assay; cited from earlier work

Molecule	AR percentage (sperm [1]) [%]	Score Type I (0 × %) (sperm [1])	Score Type II (1 × %) (sperm [1])	Score Type III (1.5 × %) (sperm [1])	Score Type IV (2 × %) (sperm [1])	Total AR score (sperm [1])	% of Type I (intact acrosome) (sperm [1]) [%]	% of Type II (damaged acrosome) (sperm [1]) [%]	% of Type III (equatorial segment) (sperm [1]) [%]	% of Type IV (no fluorescence in head) (sperm [1]) [%]	% Sperm viability (sperm [2])	% Acrosome reacted-sperm (sperm [2]) [%]	hemizona index, in words [3]	increase of ratio of acrosome-reacted spermatozoa compared to control conditions (human sperm [4]) [fold]	live acrosome-reacted sperm (human sperm [5])	minimally effective dose for sperm-zona pellucida binding inhibition [6] [ng/mL]
CNc1ccc2oc(C[C@H]3O[C@@]4(CC[C@H]3C)O[C@H]([C@H](C)C(=O)c3ccc[nH]3)[C@H](C)C[C@H]4C)nc2c1C(=O)O [Calcium ionophore, reference compound]	32	0	7	27	30	64	60	7	18	15	96.5 (2.0) %	22.5	–	–	–	–
B1	29	0	12	33	14	59	59	12	22	7	–	18.3	dramatically decreasing the hemizona index	1.5	19%±4.1%	30

From patent publication US7148021B2, “Human zona pellucida proteins and methods of their use in diagnosing male infertility” (Eastern Virginia Meical School, priority 2001, dated 2006)
